Biological target: T1, M. tuberculosis AccA3, His tag fusion (α-subunit of the acyl-CoA carboxylases) (M. tuberculosis, UniProt P96890 1-600)
T1 construct: also called His-AccA3; AccA3-His6
Assay: pull-down
Details: both partners purified

T1 sequence (P96890 whole entry, the tested form may be a part): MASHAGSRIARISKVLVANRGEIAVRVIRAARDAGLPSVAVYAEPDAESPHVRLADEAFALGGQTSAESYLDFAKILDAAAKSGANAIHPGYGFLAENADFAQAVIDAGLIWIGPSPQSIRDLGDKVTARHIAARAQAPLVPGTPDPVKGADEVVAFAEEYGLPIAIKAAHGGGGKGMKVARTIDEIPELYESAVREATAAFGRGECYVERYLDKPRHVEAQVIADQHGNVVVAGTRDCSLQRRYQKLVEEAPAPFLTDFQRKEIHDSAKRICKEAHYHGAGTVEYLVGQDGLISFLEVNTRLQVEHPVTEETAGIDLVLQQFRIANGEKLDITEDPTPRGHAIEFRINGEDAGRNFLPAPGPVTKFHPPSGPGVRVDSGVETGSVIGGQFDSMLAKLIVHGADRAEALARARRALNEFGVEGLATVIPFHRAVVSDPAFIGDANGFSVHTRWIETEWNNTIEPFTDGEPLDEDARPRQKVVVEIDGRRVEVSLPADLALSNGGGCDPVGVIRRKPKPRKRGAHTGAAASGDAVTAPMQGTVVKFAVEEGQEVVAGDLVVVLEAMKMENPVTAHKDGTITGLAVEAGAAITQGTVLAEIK

B1: Azospirillum brasilense GlnB (PII protein), without tags (natural protein, A. brasilense, UniProt P21193 1-112, looked up)
chain: MKKIEAIIKPFKLDEVKEALHEVGIKGITVTEAKGFGRQKGHTELYRGAEYVVDFLPKVKIEVVMEDSLVERAIEAIQQAAHTGRIGDGKIFVTPVEEVVRIRTGEKGGDAI
notes: also called Ab-GlnB; PII (Ab); source: E. coli (plasmid pLH25PET, pET28a), obtained without tags according to Gerhardt et al. (2015, 2017)
  binding result: binds

— article PMC11001197, “The PII protein interacts with the Amt ammonium transport and modulates nitrate/nitrite assimilation in mycobacteria” (Frontiers in Microbiology, 2024)
